# Laboratory results published in patent US20250218531A1 (ABSCI, published 2025).
# Changes are numbered by the printed parent chain.
# B1: De novo trastuzumab HCDR1|2|3 variant GFNIKDTW / IDPANGYT / ARVGGRGYYYYDY (Fab, V domains shown)
# VH: EVQLVESGGGLVQPGGSLRLSCAASGFNIKDTWIHWVRQAPGKGLEWVARIDPANGYTRYADSVKGRFTISADTSKNTAYLQMNSLRAEDTAVYYCARVGGRGYYYYDYWGQGTLVTVSS
# VL: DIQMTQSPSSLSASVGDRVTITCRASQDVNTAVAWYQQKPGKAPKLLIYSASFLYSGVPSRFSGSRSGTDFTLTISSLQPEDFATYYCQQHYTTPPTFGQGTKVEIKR
# notes: also called AI Design 4
# B2: De novo trastuzumab HCDR1|2|3 variant GFNIKDYY / IYPSRGYT / ARHGSEGRYTMDV (Fab, V domains shown)
# VH: EVQLVESGGGLVQPGGSLRLSCAASGFNIKDYYIHWVRQAPGKGLEWVARIYPSRGYTRYADSVKGRFTISADTSKNTAYLQMNSLRAEDTAVYYCARHGSEGRYTMDVWGQGTLVTVSS
# VL: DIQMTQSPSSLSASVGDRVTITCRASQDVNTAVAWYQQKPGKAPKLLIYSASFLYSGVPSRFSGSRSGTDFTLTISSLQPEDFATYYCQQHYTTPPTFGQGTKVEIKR
# notes: also called AI Design 3
# B3: De novo trastuzumab HCDR2|3 variant IYPANGYT / AREGGVGYYSFAY (Fab, V domains shown)
# VH: B1 VH with W33Y, D52Y, V99E, R102V, Y106S, Y107F, D108A
# VL: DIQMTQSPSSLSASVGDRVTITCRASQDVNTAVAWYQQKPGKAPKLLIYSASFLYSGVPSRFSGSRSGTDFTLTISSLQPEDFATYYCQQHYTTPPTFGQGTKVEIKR
# B4: Multi-step trastuzumab HCDR3 variant ARSGGYYTYGFDY (SEQ ID NO: 548) (Fab, V domains shown)
# VH: B1 VH with W33Y, D52Y, A54T, V99S, R102Y, G103Y, Y104T, Y106G, Y107F
# VL: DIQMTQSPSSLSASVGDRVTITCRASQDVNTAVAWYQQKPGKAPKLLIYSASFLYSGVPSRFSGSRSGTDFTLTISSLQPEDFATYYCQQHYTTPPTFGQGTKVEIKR
# B5: Multi-step trastuzumab HCDR3 variant ARSGGSYSYSFDV (SEQ ID NO: 522) (Fab, V domains shown)
# VH: B1 VH with W33Y, D52Y, A54T, V99S, R102S, G103Y, Y104S, Y106S, Y107F, Y109V
# VL: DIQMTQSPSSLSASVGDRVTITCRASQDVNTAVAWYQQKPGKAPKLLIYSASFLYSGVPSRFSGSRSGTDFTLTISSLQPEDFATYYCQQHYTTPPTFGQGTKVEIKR
# B6: Multi-step trastuzumab HCDR3 variant ARDGGSSSYSYSY (SEQ ID NO: 535) (Fab, V domains shown)
# VH: B1 VH with W33Y, D52Y, A54T, V99D, R102S, G103S, Y104S, Y106S, D108S
# VL: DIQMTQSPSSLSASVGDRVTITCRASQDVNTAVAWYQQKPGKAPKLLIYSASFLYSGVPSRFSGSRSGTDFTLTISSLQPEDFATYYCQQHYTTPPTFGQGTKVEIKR
# B7: De novo trastuzumab HCDR2|3 variant IYPSNGYT / ARSSGYYSYSYDY (Fab, V domains shown)
# VH: B1 VH with W33Y, D52Y, A54S, V99S, G100S, R102Y, G103Y, Y104S, Y106S
# VL: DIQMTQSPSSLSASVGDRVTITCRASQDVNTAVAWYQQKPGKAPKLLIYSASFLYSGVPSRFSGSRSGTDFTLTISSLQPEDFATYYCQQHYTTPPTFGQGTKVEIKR
# B8: De novo trastuzumab HCDR2|3 variant IYSSDGYT / ARSGGSSYYYYDY (Fab, V domains shown)
# VH: B1 VH with W33Y, D52Y, P53S, A54S, N55D, V99S, R102S, G103S
# VL: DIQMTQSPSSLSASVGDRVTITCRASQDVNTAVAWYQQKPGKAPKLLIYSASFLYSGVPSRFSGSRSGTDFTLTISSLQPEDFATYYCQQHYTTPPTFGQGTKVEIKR
# B9: De novo trastuzumab HCDR2|3 variant IDPADGYT / AREGGYGYYAMDY (Fab, V domains shown)
# VH: B1 VH with W33Y, N55D, V99E, R102Y, Y106A, Y107M
# VL: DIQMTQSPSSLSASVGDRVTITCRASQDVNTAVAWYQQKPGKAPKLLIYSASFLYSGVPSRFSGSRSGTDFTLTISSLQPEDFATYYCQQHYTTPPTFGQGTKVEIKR
# notes: also called AI Design 6
# B10: Multi-step trastuzumab HCDR3 variant ARSGGYYHYGFVY (SEQ ID NO: 544) (Fab, V domains shown)
# VH: B1 VH with W33Y, D52Y, A54T, V99S, R102Y, G103Y, Y104H, Y106G, Y107F, D108V
# VL: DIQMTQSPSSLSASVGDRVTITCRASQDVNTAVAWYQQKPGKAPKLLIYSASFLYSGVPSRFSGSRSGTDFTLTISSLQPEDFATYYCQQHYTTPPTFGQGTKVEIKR
# B11: De novo trastuzumab HCDR2|3 variant IDPENGYT / ARVGGYGYYYYDY (Fab, V domains shown)
# VH: B1 VH with W33Y, A54E, R102Y
# VL: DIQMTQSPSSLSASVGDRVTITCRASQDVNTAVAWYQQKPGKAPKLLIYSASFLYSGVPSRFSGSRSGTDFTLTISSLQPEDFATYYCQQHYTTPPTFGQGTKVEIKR
# B12: Multi-step trastuzumab HCDR3 variant ARYGGSSYYYYDY (SEQ ID NO: 529) (Fab, V domains shown)
# VH: B1 VH with W33Y, D52Y, A54T, V99Y, R102S, G103S
# VL: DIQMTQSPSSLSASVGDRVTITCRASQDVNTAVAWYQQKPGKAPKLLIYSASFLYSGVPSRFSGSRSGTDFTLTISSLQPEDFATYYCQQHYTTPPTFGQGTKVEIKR
# B13: Multi-step trastuzumab HCDR3 variant ARYGGGYYYYYDY (SEQ ID NO: 531) (Fab, V domains shown)
# VH: B1 VH with W33Y, D52Y, A54T, V99Y, R102G, G103Y
# VL: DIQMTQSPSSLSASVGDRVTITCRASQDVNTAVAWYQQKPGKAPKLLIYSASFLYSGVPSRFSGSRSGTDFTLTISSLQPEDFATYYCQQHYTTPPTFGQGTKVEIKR
# B14: Multi-step trastuzumab HCDR3 variant ARYGGSSNYYYDY (SEQ ID NO: 518) (Fab, V domains shown)
# VH: B1 VH with W33Y, D52Y, A54T, V99Y, R102S, G103S, Y104N
# VL: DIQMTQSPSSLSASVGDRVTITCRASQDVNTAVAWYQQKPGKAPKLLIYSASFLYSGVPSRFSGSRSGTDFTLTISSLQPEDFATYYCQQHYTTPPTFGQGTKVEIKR
# B15: Multi-step trastuzumab HCDR3 variant ARSGGRYTYGFDY (SEQ ID NO: 551) (Fab, V domains shown)
# VH: B1 VH with W33Y, D52Y, A54T, V99S, G103Y, Y104T, Y106G, Y107F
# VL: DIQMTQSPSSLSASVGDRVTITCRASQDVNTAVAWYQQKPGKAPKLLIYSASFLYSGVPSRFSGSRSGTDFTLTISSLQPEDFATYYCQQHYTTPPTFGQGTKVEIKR
# B16: Multi-step trastuzumab HCDR3 variant ARVGGYGYYSYDY (SEQ ID NO: 539) (Fab, V domains shown)
# VH: B1 VH with W33Y, D52Y, A54T, R102Y, Y106S
# VL: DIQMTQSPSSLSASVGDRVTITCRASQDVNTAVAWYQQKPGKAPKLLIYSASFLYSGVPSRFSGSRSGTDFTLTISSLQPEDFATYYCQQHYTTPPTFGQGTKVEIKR
# B17: Multi-step trastuzumab HCDR3 variant ARSTGSGFYSYDY (SEQ ID NO: 547) (Fab, V domains shown)
# VH: B1 VH with W33Y, D52Y, A54T, V99S, G100T, R102S, Y104F, Y106S
# VL: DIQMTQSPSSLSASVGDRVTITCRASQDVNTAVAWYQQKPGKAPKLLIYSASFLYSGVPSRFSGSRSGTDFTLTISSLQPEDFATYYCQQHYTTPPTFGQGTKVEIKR
# B18: De novo trastuzumab HCDR1|2|3 variant GFNISDYY / IYPSSGYT / ARDGGVGSYSMDV (Fab, V domains shown)
# VH: B2 VH with K30S, R55S, H99D, S101G, E102V, R104S, T106S
# VL: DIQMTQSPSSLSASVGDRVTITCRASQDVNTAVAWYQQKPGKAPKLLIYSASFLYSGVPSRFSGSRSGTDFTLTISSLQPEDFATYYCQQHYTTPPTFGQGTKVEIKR
# notes: also called AI Design 2
# B19: Multi-step trastuzumab HCDR3 variant ARYGGSSYYYFDY (SEQ ID NO: 528) (Fab, V domains shown)
# VH: B1 VH with W33Y, D52Y, A54T, V99Y, R102S, G103S, Y107F
# VL: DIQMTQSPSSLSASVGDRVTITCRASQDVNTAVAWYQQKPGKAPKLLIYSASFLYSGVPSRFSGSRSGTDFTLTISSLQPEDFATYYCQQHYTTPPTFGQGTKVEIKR
# B20: Multi-step trastuzumab HCDR3 variant ARSSGYYYYGFVY (SEQ ID NO: 540) (Fab, V domains shown)
# VH: B1 VH with W33Y, D52Y, A54T, V99S, G100S, R102Y, G103Y, Y106G, Y107F, D108V
# VL: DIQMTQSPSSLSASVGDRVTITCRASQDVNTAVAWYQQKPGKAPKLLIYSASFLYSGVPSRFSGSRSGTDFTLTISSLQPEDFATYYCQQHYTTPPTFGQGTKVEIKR
# B21: Multi-step trastuzumab HCDR3 variant ARDGGGGVYAFTY (SEQ ID NO: 525) (Fab, V domains shown)
# VH: B1 VH with W33Y, D52Y, A54T, V99D, R102G, Y104V, Y106A, Y107F, D108T
# VL: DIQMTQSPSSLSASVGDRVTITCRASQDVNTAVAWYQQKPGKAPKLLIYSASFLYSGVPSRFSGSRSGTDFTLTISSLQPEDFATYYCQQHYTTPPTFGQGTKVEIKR
# B22: Multi-step trastuzumab HCDR3 variant ARYGGRSSYYFDY (SEQ ID NO: 545) (Fab, V domains shown)
# VH: B1 VH with W33Y, D52Y, A54T, V99Y, G103S, Y104S, Y107F
# VL: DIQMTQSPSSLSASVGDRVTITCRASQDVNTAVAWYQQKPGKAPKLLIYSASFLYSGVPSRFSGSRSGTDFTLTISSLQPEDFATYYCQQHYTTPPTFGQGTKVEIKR
# B23: Multi-step trastuzumab HCDR3 variant ARTGGSSYYAYDY (SEQ ID NO: 520) (Fab, V domains shown)
# VH: B1 VH with W33Y, D52Y, A54T, V99T, R102S, G103S, Y106A
# VL: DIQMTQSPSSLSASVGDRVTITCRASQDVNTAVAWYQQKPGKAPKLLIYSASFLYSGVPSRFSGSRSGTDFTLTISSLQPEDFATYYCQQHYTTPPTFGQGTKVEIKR
# B24: Multi-step trastuzumab HCDR3 variant ARVGGRGYYAYDY (SEQ ID NO: 552) (Fab, V domains shown)
# VH: B1 VH with W33Y, D52Y, A54T, Y106A
# VL: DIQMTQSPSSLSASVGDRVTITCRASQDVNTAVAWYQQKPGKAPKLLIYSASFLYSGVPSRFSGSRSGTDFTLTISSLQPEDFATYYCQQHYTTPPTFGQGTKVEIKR
# B25: De novo trastuzumab HCDR2|3 variant IDPANGYT / ARVGGRGYYYYDY (Fab, V domains shown)
# VH: B1 VH with W33Y
# VL: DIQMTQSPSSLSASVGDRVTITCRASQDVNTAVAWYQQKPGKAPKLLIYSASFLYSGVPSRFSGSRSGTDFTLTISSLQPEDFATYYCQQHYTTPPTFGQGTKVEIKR
# notes: also called AI Design 7
# B26: De novo trastuzumab HCDR2|3 variant IYPSNGYT / ARSGYYYSYSFDY (Fab, V domains shown)
# VH: B1 VH with W33Y, D52Y, A54S, V99S, G101Y, R102Y, G103Y, Y104S, Y106S, Y107F
# VL: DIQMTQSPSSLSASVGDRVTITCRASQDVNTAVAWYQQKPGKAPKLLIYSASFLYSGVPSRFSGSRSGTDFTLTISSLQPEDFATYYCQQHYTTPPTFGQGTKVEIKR
# B27: De novo trastuzumab HCDR2|3 variant IYPSSGYT / ASSGGRYYYYYDY (Fab, V domains shown)
# VH: B1 VH with W33Y, D52Y, A54S, N55S, R98S, V99S, G103Y
# VL: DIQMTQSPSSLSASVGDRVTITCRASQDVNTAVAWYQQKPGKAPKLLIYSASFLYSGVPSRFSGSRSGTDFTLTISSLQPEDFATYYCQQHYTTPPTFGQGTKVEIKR
# B28: Multi-step trastuzumab HCDR3 variant ARYGGRGYYSFDY (SEQ ID NO: 533) (Fab, V domains shown)
# VH: B1 VH with W33Y, D52Y, A54T, V99Y, Y106S, Y107F
# VL: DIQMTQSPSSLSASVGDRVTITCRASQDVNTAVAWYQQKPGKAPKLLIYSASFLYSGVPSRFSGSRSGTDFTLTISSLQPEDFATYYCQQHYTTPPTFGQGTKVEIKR
# B29: Multi-step trastuzumab HCDR3 variant ARSGGSSFYGMDY (SEQ ID NO: 519) (Fab, V domains shown)
# VH: B1 VH with W33Y, D52Y, A54T, V99S, R102S, G103S, Y104F, Y106G, Y107M
# VL: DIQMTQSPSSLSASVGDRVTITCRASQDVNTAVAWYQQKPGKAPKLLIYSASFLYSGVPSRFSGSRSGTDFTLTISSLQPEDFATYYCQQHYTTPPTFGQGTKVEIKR
# B30: Multi-step trastuzumab HCDR3 variant ARSRGSSSYMMDY (SEQ ID NO: 512) (Fab, V domains shown)
# VH: B1 VH with W33Y, D52Y, A54T, V99S, G100R, R102S, G103S, Y104S, Y106M, Y107M
# VL: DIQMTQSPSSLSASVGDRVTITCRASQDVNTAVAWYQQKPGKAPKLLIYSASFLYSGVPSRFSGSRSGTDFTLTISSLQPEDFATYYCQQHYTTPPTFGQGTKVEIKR
# B31: Multi-step trastuzumab HCDR3 variant ARDRGVSGYYLYY (SEQ ID NO: 516) (Fab, V domains shown)
# VH: B1 VH with W33Y, D52Y, A54T, V99D, G100R, R102V, G103S, Y104G, Y107L, D108Y
# VL: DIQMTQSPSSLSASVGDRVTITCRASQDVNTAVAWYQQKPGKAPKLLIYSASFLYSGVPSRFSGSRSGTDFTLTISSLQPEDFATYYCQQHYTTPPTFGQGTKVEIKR
# B32: Multi-step trastuzumab HCDR3 variant ARDGGGGFYAYDY (SEQ ID NO: 534) (Fab, V domains shown)
# VH: B1 VH with W33Y, D52Y, A54T, V99D, R102G, Y104F, Y106A
# VL: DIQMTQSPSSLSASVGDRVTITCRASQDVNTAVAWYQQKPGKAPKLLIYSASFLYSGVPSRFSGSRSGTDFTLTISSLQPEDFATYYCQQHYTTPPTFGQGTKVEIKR
# B33: Multi-step trastuzumab HCDR3 variant ARSGGGSYYYYDY (SEQ ID NO: 546) (Fab, V domains shown)
# VH: B1 VH with W33Y, D52Y, A54T, V99S, R102G, G103S
# VL: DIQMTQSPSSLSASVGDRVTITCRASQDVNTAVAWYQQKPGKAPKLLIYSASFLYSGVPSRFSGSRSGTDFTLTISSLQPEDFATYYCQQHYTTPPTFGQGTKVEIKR
# B34: Multi-step trastuzumab HCDR3 variant ARSGGSSYYYYDY (SEQ ID NO: 508) (Fab, V domains shown)
# VH: B1 VH with W33Y, D52Y, A54T, V99S, R102S, G103S
# VL: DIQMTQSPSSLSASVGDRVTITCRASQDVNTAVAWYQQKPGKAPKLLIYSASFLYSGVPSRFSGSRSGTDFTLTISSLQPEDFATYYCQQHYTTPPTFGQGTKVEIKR
# B35: Multi-step trastuzumab HCDR3 variant ARYGGSYFYYYSY (SEQ ID NO: 517) (Fab, V domains shown)
# VH: B1 VH with W33Y, D52Y, A54T, V99Y, R102S, G103Y, Y104F, D108S
# VL: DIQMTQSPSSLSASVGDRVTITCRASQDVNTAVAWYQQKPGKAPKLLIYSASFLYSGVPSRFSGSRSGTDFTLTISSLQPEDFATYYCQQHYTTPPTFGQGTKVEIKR
# B36: De novo trastuzumab HCDR2|3 variant IYPSNGYT / ARYYGGSMYYYGY (Fab, V domains shown)
# VH: B1 VH with W33Y, D52Y, A54S, V99Y, G100Y, R102G, G103S, Y104M, D108G
# VL: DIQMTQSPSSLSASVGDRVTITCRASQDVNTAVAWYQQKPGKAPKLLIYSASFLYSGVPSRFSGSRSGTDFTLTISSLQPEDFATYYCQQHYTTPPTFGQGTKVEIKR
# B37: Multi-step trastuzumab HCDR3 variant ARYGGDYYYYYDY (SEQ ID NO: 527) (Fab, V domains shown)
# VH: B1 VH with W33Y, D52Y, A54T, V99Y, R102D, G103Y
# VL: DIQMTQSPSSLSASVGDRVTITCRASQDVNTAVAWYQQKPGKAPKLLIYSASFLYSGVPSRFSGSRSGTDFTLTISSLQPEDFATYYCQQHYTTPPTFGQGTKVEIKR
# B38: De novo trastuzumab HCDR2|3 variant IYPANGYT / ASSGGGYSYYYTY (Fab, V domains shown)
# VH: B1 VH with W33Y, D52Y, R98S, V99S, R102G, G103Y, Y104S, D108T
# VL: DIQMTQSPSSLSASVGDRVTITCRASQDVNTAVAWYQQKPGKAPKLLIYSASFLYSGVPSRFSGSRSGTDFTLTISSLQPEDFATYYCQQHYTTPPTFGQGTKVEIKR
# B39: De novo trastuzumab HCDR2|3 variant IYPEDGST / ARSGGSSTYAYDY (Fab, V domains shown)
# VH: B1 VH with W33Y, D52Y, A54E, N55D, Y57S, V99S, R102S, G103S, Y104T, Y106A
# VL: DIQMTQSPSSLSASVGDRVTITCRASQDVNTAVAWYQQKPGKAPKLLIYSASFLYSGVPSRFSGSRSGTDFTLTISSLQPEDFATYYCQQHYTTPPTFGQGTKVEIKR
# B40: De novo trastuzumab HCDR2|3 variant IYPANGYT / ASSGGSSSYYYNY (Fab, V domains shown)
# VH: B1 VH with W33Y, D52Y, R98S, V99S, R102S, G103S, Y104S, D108N
# VL: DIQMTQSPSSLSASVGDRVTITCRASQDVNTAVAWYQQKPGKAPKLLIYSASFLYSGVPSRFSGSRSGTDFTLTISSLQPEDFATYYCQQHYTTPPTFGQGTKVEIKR
# B41: Multi-step trastuzumab HCDR3 variant ARSSGSSYYGFDY (SEQ ID NO: 526) (Fab, V domains shown)
# VH: B1 VH with W33Y, D52Y, A54T, V99S, G100S, R102S, G103S, Y106G, Y107F
# VL: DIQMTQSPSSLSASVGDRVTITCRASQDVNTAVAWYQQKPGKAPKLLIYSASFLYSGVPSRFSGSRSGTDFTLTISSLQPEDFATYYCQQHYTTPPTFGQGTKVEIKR
# B42: Multi-step trastuzumab HCDR3 variant ARSYGSGSYSFDY (SEQ ID NO: 514) (Fab, V domains shown)
# VH: B1 VH with W33Y, D52Y, A54T, V99S, G100Y, R102S, Y104S, Y106S, Y107F
# VL: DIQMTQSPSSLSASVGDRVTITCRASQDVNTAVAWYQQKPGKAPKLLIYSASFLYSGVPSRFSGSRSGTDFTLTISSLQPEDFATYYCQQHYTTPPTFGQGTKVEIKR
# B43: Multi-step trastuzumab HCDR3 variant ARDGGRSYYSFYY (SEQ ID NO: 538) (Fab, V domains shown)
# VH: B1 VH with W33Y, D52Y, A54T, V99D, G103S, Y106S, Y107F, D108Y
# VL: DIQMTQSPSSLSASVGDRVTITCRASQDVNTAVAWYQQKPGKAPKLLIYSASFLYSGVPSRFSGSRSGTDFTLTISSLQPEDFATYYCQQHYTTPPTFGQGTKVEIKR
# B44: Multi-step trastuzumab HCDR3 variant ARSGGSGYYSYNY (SEQ ID NO: 523) (Fab, V domains shown)
# VH: B1 VH with W33Y, D52Y, A54T, V99S, R102S, Y106S, D108N
# VL: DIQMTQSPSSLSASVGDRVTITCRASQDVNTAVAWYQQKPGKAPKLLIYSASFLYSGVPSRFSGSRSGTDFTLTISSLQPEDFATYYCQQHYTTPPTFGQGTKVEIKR
# B45: De novo trastuzumab HCDR2|3 variant IYPSNGYT / ARYRGSSSYYFDY (Fab, V domains shown)
# VH: B1 VH with W33Y, D52Y, A54S, V99Y, G100R, R102S, G103S, Y104S, Y107F
# VL: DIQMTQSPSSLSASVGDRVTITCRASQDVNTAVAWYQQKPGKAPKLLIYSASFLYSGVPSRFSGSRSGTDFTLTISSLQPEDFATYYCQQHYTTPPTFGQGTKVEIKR
# B46: Multi-step trastuzumab HCDR3 variant ARDGGRGRYAMDY (SEQ ID NO: 541) (Fab, V domains shown)
# VH: B1 VH with W33Y, D52Y, A54T, V99D, Y104R, Y106A, Y107M
# VL: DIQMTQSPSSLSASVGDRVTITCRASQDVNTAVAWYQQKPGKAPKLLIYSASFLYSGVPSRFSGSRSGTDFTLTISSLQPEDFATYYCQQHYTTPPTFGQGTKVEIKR
# B47: De novo trastuzumab HCDR2|3 variant IYPSNGYT / ARYGGSYAYYFYY (Fab, V domains shown)
# VH: B1 VH with W33Y, D52Y, A54S, V99Y, R102S, G103Y, Y104A, Y107F, D108Y
# VL: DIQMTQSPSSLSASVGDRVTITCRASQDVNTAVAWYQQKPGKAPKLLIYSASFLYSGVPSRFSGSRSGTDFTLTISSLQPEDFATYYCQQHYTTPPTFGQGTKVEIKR
# notes: also called AI Design 8
# Biological target: human epidermal growth factor receptor 2 (HER2) extracellular domain (human, UniProt P04626 23-629)
# Assay: SPR, Fab format
Binder,Kd [nM],log(KD (M)) [log M]
B1,394,-6.4
B2,192,-6.72
B3,213,-6.67
B4,338,-6.47
B5,1070,-5.97
B6,146,-6.83
B7,230,-6.64
B8,810,-6.09
B9,160,-6.8
B10,228,-6.64
B11,277,-6.56
B12,72.3,-7.14
B13,57.6,-7.24
B14,441,-6.36
B15,1410,-5.85
B16,169,-6.77
B17,330,-6.48
B18,1320,-5.88
B19,97.2,-7.01
B20,157,-6.8
B21,364,-6.44
B22,257,-6.59
B23,901,-6.05
B24,2290,-5.64

Binder,Kd [nM],log(KD (M)) [log M]
B25,134,-6.87
B26,348,-6.46
B27,591,-6.23
B28,26.2,-7.58
B29,680,-6.17
B30,566,-6.25
B31,567,-6.25
B32,124,-6.91
B33,308,-6.51
B34,1070,-5.97
B35,7.31,-8.14
B36,109,-6.96
B37,57,-7.24
B38,476,-6.32
B39,669,-6.17
B40,554,-6.26
B41,668,-6.18
B42,495,-6.31
B43,104,-6.98
B44,603,-6.22
B45,907,-6.04
B46,402,-6.4
B47,18.6,-7.73
